Results on two molecules are retold here after US20090274695A1 (published 2009).

The term koff denotes the rate constant with which the complex falls apart. Broadly, the kon is a measure of how fast the partners come together. Higher therefore signals fast association. Broadly, the Kd is a measure of binding affinity in units of concentration.

For experiment [1], the target named is T1, unnamed immobilized partner drawn in Figure 10B.
T1 construct: It is drawn as a chain of three ovals held by a small tag on a cross-shaped capture molecule on the surface; This would fit biotinylated uPAR on avidin, but it carries no label, so it is not assigned to m7 or m13
Briefly: BIAcore, two-step binding scheme. The line is printed 'ka1' a second time, but the unit 1/s and the scheme's kd1 mark it as the dissociation rate of the first step. Immobilized partner not named. In general terms: In SPR one partner is held on a chip, and binding of the other changes the refractive index at the surface.

Experiment [2] has as its target T2, Mouse uPAR, full-length, on transfected COS cells (mouse, UniProt P35456 24-298).
T2 construct: whole, on cells; also called murine uPAR
T2 sequence (looked up): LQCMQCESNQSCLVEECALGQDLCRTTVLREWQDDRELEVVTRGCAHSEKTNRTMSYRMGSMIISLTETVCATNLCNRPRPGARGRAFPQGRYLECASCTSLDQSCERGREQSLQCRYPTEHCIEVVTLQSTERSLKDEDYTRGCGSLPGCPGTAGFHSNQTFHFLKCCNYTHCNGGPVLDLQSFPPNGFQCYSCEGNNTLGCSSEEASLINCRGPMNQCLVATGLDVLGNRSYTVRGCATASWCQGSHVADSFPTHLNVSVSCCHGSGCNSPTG
In words: AP fusion protein on COS cells transfected with murine uPAR, colorimetric AP assay; bar pattern assigned by bar order and by paragraph 233.

The target in experiment [3] is T1, unnamed immobilized partner drawn in …. Briefly: BIAcore, two-step binding scheme drawn beside the numbers; immobilized partner not named.
Experiment [4] concerns the target T3, Human uPAR (urokinase-type plasminogen activator receptor), full-length, on transfected COS or CHO cells (human, UniProt Q03405 23-305).
T3 construct: whole, on cells; GPI-anchored on the cell surface; also called uPAR-transfected cells
In words: homologous competition of purified CYTL1 against CYTL1-AP on uPAR-transfected cells, three independent experiments.

Experiment [5] addresses T4, Recombinant human uPAR (R&D Systems), immobilized on a CM5 sensor chip (human, UniProt Q03405 23-303, limits assumed).
T4 construct: Bought protein, amine-coupled to the chip; also called immobilized uPAR
In words: SPR equilibrium binding, Langmuir single-site fit, three sets of readings; SPR equilibrium binding, uPAR immobilized on the chip.

T3 sequence (Q03405 23-305): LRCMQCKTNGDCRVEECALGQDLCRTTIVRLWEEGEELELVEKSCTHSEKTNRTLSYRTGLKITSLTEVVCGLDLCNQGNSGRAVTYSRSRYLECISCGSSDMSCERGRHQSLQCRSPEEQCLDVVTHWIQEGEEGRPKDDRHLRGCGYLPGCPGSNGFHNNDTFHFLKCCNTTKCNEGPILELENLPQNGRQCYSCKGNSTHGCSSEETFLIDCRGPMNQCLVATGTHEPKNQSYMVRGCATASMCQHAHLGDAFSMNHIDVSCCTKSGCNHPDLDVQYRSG
T4 sequence (Q03405 23-303 limits assumed): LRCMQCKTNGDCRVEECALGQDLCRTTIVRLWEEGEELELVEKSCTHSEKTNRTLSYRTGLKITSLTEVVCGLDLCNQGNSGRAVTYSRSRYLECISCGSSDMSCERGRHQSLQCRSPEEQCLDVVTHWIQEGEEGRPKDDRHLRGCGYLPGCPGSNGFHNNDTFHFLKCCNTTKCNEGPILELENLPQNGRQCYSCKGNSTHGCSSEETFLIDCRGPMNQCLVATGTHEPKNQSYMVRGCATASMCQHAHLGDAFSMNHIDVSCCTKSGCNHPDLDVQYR

B1: Human CYTL1-alkaline phosphatase fusion protein (other)
chain: TPPTCYSRMRALSQEITRDFNLLQVSEPSEPCVRYLPRLYLDIHNYCVLDKLRDFVASPPCWKVAQVDSLKDKARKLYTIMNSFCRRDLVFLLDDCNALEYPIPVTTVLPDRQR
notes: Expressed in 293 cells from a pRK5-based vector and used as cell-conditioned medium; also called CYTL1-AP; human CYTL1-AP; not shown: Human placental alkaline phosphatase (AP)
The molecule B1 gave a koff in experiment [1] of 0.018 s⁻¹. Also, the binding result in experiment [2] is listed as “no binding”. In experiment [3], this molecule registered a kon of 570000 M⁻¹ s⁻¹.

B2: Purified human CYTL1 (cytokine-like 1), expressed in insect cells, poly-histidine tag cleaved (ligand)
chain: B1 chain
notes: also called purified CYTL1; PRO4425
With B2, the Kd is ~1.5 µM in experiment [4] and 1.1 µM in experiment [5].
